Experimental data from the Immune Epitope Database (IEDB).

How the values were obtained:
Assay in all cases: IEDB peptide-MHC binding, purified MHC/competitive/radioactivity; filed as Kd, often an IC50 or EC50 that approximates it; ≥ and ≤ were set here for values at or beyond the usual limits of such assays
HLA-A*31:01 = molecular target: HLA-A*31:01
HLA-A*33:01 = molecular target: HLA-A*33:01
HLA-A*03:01 = molecular target: HLA-A*03:01
HLA-A*11:01 = molecular target: HLA-A*11:01
HLA-A*68:01 = molecular target: HLA-A*68:01
[1] = source organism: Dengue virus 3 Martinique/1243/1999
[2] = source organism: SARS coronavirus Tor2
[3] = source organism: Vaccinia virus WR
[4] = source organism: Dengue virus 1 Brazil/97-11/1997
[5] = source organism: Dengue virus 4 Philippines/H241/1956
[6] = source organism: Dengue virus 2 Jamaica/1409/1983
[7] = source organism: Dengue virus 1 Singapore/S275/1990
[8] = source organism: Dengue virus 4 Dominica/814669/1981
[9] = source organism: Murray valley encephalitis virus (strain MVE-1-51)
[10] = source organism: Mammarenavirus guanaritoense

## AIWYMWLGAR
HLA-A*31:01; [1]
  Kd: 42.3 nM
HLA-A*33:01; [1]
  Kd: 57.3 nM

## ALAFHLTSR
HLA-A*03:01; [1]
  Kd: 34.9 nM

## AQPLPQRQK
HLA-A*03:01; [2]
  Kd: ≥ 23600 nM
HLA-A*11:01; [2]
  Kd: 879 nM
HLA-A*31:01; [2]
  Kd: ≥ 53200 nM
HLA-A*33:01; [2]
  Kd: ≥ 77700 nM
HLA-A*68:01; [2]
  Kd: 3030 nM

## ASGNLLLDK
HLA-A*03:01; [2]
  Kd: 694 nM
HLA-A*11:01; [2]
  Kd: 29.8 nM
HLA-A*31:01; [2]
  Kd: 13500 nM
HLA-A*33:01; [2]
  Kd: ≥ 77700 nM
HLA-A*68:01; [2]
  Kd: ≥ 38100 nM

## ATNNVFRLK
HLA-A*31:01; [2]
  Kd: 2.57 nM
HLA-A*33:01; [2]
  Kd: 6410 nM
HLA-A*68:01; [2]
  Kd: 11.6 nM

## AVHECFVKR
HLA-A*03:01; [2]
  Kd: 3320 nM
HLA-A*11:01; [2]
  Kd: 440 nM
HLA-A*31:01; [2]
  Kd: 39 nM
HLA-A*33:01; [2]
  Kd: 1270 nM
HLA-A*68:01; [2]
  Kd: 79.6 nM

## AVRYYDGNIY
HLA-A*03:01; [3]
  Kd: 2500 nM
HLA-A*11:01; [3]
  Kd: 272 nM
HLA-A*31:01; [3]
  Kd: ≥ 70000 nM
HLA-A*33:01; [3]
  Kd: ≥ 70000 nM
HLA-A*68:01; [3]
  Kd: 3040 nM

## AVVADLSAR
HLA-A*03:01; [3]
  Kd: 141 nM
HLA-A*11:01; [3]
  Kd: 51.8 nM
HLA-A*31:01; [3]
  Kd: 26.6 nM
HLA-A*33:01; [3]
  Kd: 712 nM
HLA-A*68:01; [3]
  Kd: 6.45 nM

## CAGVIEYAK
HLA-A*03:01; [3]
  Kd: 988 nM
HLA-A*11:01; [3]
  Kd: 192 nM
HLA-A*31:01; [3]
  Kd: 2220 nM
HLA-A*33:01; [3]
  Kd: 1190 nM
HLA-A*68:01; [3]
  Kd: 51.1 nM

## DFRNRYEDY
HLA-A*03:01; [3]
  Kd: 2770 nM
HLA-A*11:01; [3]
  Kd: 7930 nM
HLA-A*31:01; [3]
  Kd: ≥ 77900 nM
HLA-A*33:01; [3]
  Kd: 96.4 nM
HLA-A*68:01; [3]
  Kd: 3700 nM

## DLVKSSFVK
HLA-A*03:01; [3]
  Kd: 1790 nM
HLA-A*11:01; [3]
  Kd: 127 nM
HLA-A*31:01; [3]
  Kd: 94.2 nM
HLA-A*33:01; [3]
  Kd: 905 nM
HLA-A*68:01; [3]
  Kd: 77 nM

## DLVKSYSLIR
HLA-A*03:01; [3]
  Kd: ≥ 10000 nM
HLA-A*11:01; [3]
  Kd: 6720 nM
HLA-A*31:01; [3]
  Kd: 173 nM
HLA-A*33:01; [3]
  Kd: 579 nM
HLA-A*68:01; [3]
  Kd: 1630 nM

## DTRTPRAKR
HLA-A*33:01; [4]
  Kd: 29.8 nM

## EATARGARR
HLA-A*33:01; [4]
  Kd: 36.7 nM
HLA-A*68:01; [4]
  Kd: 12.5 nM

## EGAWKHAQR
HLA-A*68:01; [5]
  Kd: 115 nM

## EILKINSVK
HLA-A*03:01; [3]
  Kd: 713 nM
HLA-A*11:01; [3]
  Kd: 1540 nM
HLA-A*31:01; [3]
  Kd: 2080 nM
HLA-A*33:01; [3]
  Kd: 549 nM
HLA-A*68:01; [3]
  Kd: 2.64 nM

## EMGANFKAER
HLA-A*33:01; [6]
  Kd: 15.5 nM

## ETKITFALKK
HLA-A*03:01; [3]
  Kd: 1230 nM
HLA-A*11:01; [3]
  Kd: 93.1 nM
HLA-A*31:01; [3]
  Kd: 8270 nM
HLA-A*33:01; [3]
  Kd: 3200 nM
HLA-A*68:01; [3]
  Kd: 74.8 nM

## FINFFNLLAK
HLA-A*03:01; [3]
  Kd: 8.96 nM
HLA-A*11:01; [3]
  Kd: 0.273 nM
HLA-A*31:01; [3]
  Kd: 1820 nM
HLA-A*33:01; [3]
  Kd: 427 nM
HLA-A*68:01; [3]
  Kd: 6.53 nM

## FLYLYALIY
HLA-A*03:01; [2]
  Kd: 6630 nM
HLA-A*11:01; [2]
  Kd: 16300 nM
HLA-A*31:01; [2]
  Kd: 16900 nM
HLA-A*33:01; [2]
  Kd: 17900 nM
HLA-A*68:01; [2]
  Kd: ≥ 44400 nM

## FSKNILKYY
HLA-A*03:01; [3]
  Kd: ≥ 21200 nM
HLA-A*11:01; [3]
  Kd: ≥ 28900 nM
HLA-A*31:01; [3]
  Kd: 16300 nM
HLA-A*33:01; [3]
  Kd: ≥ 77700 nM
HLA-A*68:01; [3]
  Kd: 5490 nM

## FSKSTSPTR
HLA-A*03:01; [3]
  Kd: ≥ 42200 nM
HLA-A*11:01; [3]
  Kd: 12300 nM
HLA-A*31:01; [3]
  Kd: 20.6 nM
HLA-A*33:01; [3]
  Kd: 387 nM
HLA-A*68:01; [3]
  Kd: 9.78 nM

## FSNTILLSDK
HLA-A*03:01; [3]
  Kd: 25.5 nM
HLA-A*11:01; [3]
  Kd: 1.96 nM
HLA-A*31:01; [3]
  Kd: 1260 nM
HLA-A*33:01; [3]
  Kd: ≥ 62600 nM
HLA-A*68:01; [3]
  Kd: 100 nM

## FVKKFGLCNY
HLA-A*03:01; [3]
  Kd: ≥ 22800 nM
HLA-A*11:01; [3]
  Kd: 15100 nM
HLA-A*31:01; [3]
  Kd: 12200 nM
HLA-A*33:01; [3]
  Kd: ≥ 45100 nM
HLA-A*68:01; [3]
  Kd: ≥ 37100 nM

## GLAMGIMILK
HLA-A*03:01; [7]
  Kd: 20.7 nM
HLA-A*11:01; [7]
  Kd: 69.8 nM

## GLSSRATWAK
HLA-A*03:01; [5]
  Kd: 35.2 nM
HLA-A*11:01; [5]
  Kd: 164 nM

## GSQLAKRFSR
HLA-A*31:01; source organism: Dengue virus 3 Singapore/8120/1995
  Kd: 54.4 nM

## GVFTTNIWLK
HLA-A*03:01; [6]
  Kd: 29.3 nM
HLA-A*11:01; [6]
  Kd: 40.7 nM
HLA-A*68:01; [6]
  Kd: 1.45 nM

## IGKMFESTYR
HLA-A*33:01; [8]
  Kd: 176 nM

## ILARWGSFKK
HLA-A*03:01; [7]
  Kd: 9.69 nM

## KAKIFTPEAR
HLA-A*31:01; [8]
  Kd: 2.85 nM

## KVTEVRGYTK
HLA-A*11:01; [1]
  Kd: 201 nM

## LISGKGIGK
HLA-A*03:01; [1]
  Kd: 722 nM

## LMCHATFTMR
HLA-A*31:01; [6]
  Kd: 7.31 nM
HLA-A*33:01; [6]
  Kd: 89 nM

## MANEMGFLEK
HLA-A*11:01; [6]
  Kd: 519 nM

## MILLTMKNK
HLA-A*03:01; [1]
  Kd: 49.7 nM
HLA-A*11:01; [1]
  Kd: 1200 nM

## MLVAPSYGMR
HLA-A*68:01; [5]
  Kd: 7.59 nM

## MPSMKRFRR
HLA-A*33:01; [6]
  Kd: 6.72 nM

## MSAAVKDER
HLA-A*31:01; [1]
  Kd: 32.4 nM
HLA-A*68:01; [1]
  Kd: 74.3 nM

## MVTFKVPHAK
HLA-A*03:01; [5]
  Kd: 80.3 nM
HLA-A*11:01; [5]
  Kd: 251 nM
HLA-A*68:01; [5]
  Kd: 133 nM

## NMISRMLINR
HLA-A*31:01; [6]
  Kd: 18 nM
HLA-A*33:01; [6]
  Kd: 7.06 nM
HLA-A*68:01; [6]
  Kd: 137 nM

## RWLWGFLSR
HLA-A*31:01; [7]
  Kd: 1.45 nM

## SLRTTTVSGK
HLA-A*03:01; [1]
  Kd: 5.78 nM

## SSMINGVVK
HLA-A*11:01; [1]
  Kd: 12.9 nM

## TIGTTHFQR
HLA-A*31:01; [6]
  Kd: 14.3 nM
HLA-A*68:01; [6]
  Kd: 18.4 nM

## TLFVEECLR
HLA-A*33:01; [5]
  Kd: 86.3 nM
HLA-A*68:01; [5]
  Kd: 30.1 nM

## TTAKEVALLR
HLA-A*68:01; [5]
  Kd: 73.3 nM

## VASAGISYK
HLA-A*03:01; [5]
  Kd: 28.4 nM
HLA-A*11:01; [5]
  Kd: 37.4 nM

## VQTKPGIFK
HLA-A*03:01; [9]
  Kd: 274 nM
HLA-A*11:01; [9]
  Kd: 435 nM

## VTEFRRTAIH
HLA-A*03:01; [10]
  Kd: ≥ 33100 nM
HLA-A*31:01; [10]
  Kd: 10700 nM
HLA-A*33:01; [10]
  Kd: 5850 nM
HLA-A*68:01; [10]
  Kd: 15300 nM

## WTLMYFHRR
HLA-A*31:01; [6]
  Kd: 1.49 nM
HLA-A*33:01; [6]
  Kd: 6.56 nM
